Data from patent US20240383984A1 (Genentech, published 2024).
Positions count from the first letter of the chain named.

B1: hu1G7.v1.4/38E4.v1 TDB (bispecific antibody, V domains shown)
VH 1: EVQLVESGPGLVKPSETLSLTCTVSGFSLTRFGVHWVRQPPGKGLEWLGVIWRGGSTDYNAAFMSRLTISKDNSKNQVSLKLSSVTAADTAVYYCSNHYYGSSDYALDNWGQGTLVTVSS
VL 1: DIQMTQSPSSLSASVGDRVTITCKASQDVRNLVVWFQQKPGKAPKLLIYSGSYRYSGVPSRFSGSGSGTDFTLTISSLQPEDFATYYCQQHYSPPYTFGQGTKVEIK
VH 2: EVQLVQSGAEVKKPGASVKVSCKASGFTFTSYYIHWVRQAPGQGLEWIGWIYPENDNTKYNEKFKDRVTITADTSTSTAYLELSSLRSEDTAVYYCARDGYSRYYFDYWGQGTLVTVSS
VL 2: DIVMTQSPDSLAVSLGERATINCKSSQSLLNSRTRKNYLAWYQQKPGQSPKLLIYWTSTRKSGVPDRFSGSGSGTDFTLTISSLQAEDVAVYYCKQSFILRTFGQGTKVEIK
notes: knob-into-hole TDB; also called 1G7.v1.4 TDB; 1G7.v1.4 (TDB format)
B2: hu1G7.v1.13.1/38E4.v1 TDB (bispecific antibody, V domains shown)
VH 1: B1 VH 1
VL 1: B1 VL 1 with S52Y, S56T, S93Q
VH 2: B1 VH 2
VL 2: B1 VL 2
notes: knob-into-hole TDB; also called 1G7.v1.13.1 TDB
B3: hu1G7.v1.13/38E4.v1 TDB (bispecific antibody, V domains shown)
VH 1: B1 VH 1 with L48I
VL 1: B1 VL 1 with S52Y, S56T, S93Q
VH 2: B1 VH 2
VL 2: B1 VL 2
notes: knob-into-hole TDB; also called 1G7.v1.13 TDB
B4: hu1G7.v1.3/38E4.v1 TDB (bispecific antibody, V domains shown)
VH 1: B1 VH 1
VL 1: B1 VL 1 with L32I, H91Q
VH 2: B1 VH 2
VL 2: B1 VL 2
notes: knob-into-hole TDB; also called 1G7.v1.3 TDB
B5: hu1G7.v1.2/38E4.v1 TDB (bispecific antibody, V domains shown)
VH 1: B1 VH 1
VL 1: B1 VL 1 with S52Y, Y53N, H91Q, Y92F, S93Q
VH 2: B1 VH 2
VL 2: B1 VL 2
notes: knob-into-hole TDB; also called 1G7.v1.2 TDB
B6: hu1G7.v1.1/38E4.v1 TDB (bispecific antibody, V domains shown)
VH 1: B1 VH 1
VL 1: B1 VL 1 with H91Q
VH 2: B1 VH 2
VL 2: B1 VL 2
notes: knob-into-hole TDB; also called 1G7.v1.1 TDB

target: T1, human FcRH1 (full-length, on SVT2 cells) (human, UniProt Q96LA6 17-429); test: FACS, SVT2 cells
T1 construct: whole, on cells; also called SVT2-FcRH1
T1 sequence (looked up): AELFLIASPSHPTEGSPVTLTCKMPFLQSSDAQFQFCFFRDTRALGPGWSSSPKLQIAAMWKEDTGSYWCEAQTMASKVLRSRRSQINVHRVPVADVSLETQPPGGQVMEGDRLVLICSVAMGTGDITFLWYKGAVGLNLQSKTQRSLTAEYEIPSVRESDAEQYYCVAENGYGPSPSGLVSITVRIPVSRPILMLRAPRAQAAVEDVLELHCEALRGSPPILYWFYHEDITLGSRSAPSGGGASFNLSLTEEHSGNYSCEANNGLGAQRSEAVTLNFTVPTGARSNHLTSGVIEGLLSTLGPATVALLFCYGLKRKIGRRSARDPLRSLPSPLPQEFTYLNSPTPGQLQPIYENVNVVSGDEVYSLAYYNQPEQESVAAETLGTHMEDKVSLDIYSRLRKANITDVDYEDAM
Experimental: (§1) Human FcRH5, cyno FcRH5, human FcRH1, FcRH2, FcRH3, and FcRH4 transfected mouse SVT2 cells were used to test binding and cross-reactivity of FcRH5 TDBs. The method was carried out as follows. Cultured SVT2 cells were lifted using non-enzyme cell dissociation buffer (Sigma, #C5914). 1×10⁵ cells were suspended in 100 μL and incubated with FcRH5 TDBs at 3 μg/ml. […] Cells were washed twice with FACS buffer before flow cytometry analysis was carried out on a FACSCalibur.

Question: Does B1 bind?
Answer: no binding (tested: 3 µg/ml)

Question: Does B2 bind?
Answer: no binding (tested: 3 µg/ml)

Question: Does B3 bind?
Answer: no binding (tested: 3 µg/ml)

Question: Does B4 bind?
Answer: no binding (tested: 3 µg/ml)

Question: Does B5 bind?
Answer: no binding (tested: 3 µg/ml)

Question: Does B6 bind?
Answer: no binding (tested: 3 µg/ml)

target: T2, human FcRH4 (full-length, on SVT2 cells) (human, UniProt Q96PJ5 20-515); test: FACS, SVT2 cells
T2 construct: whole, on cells; also called SVT2-FcRH4
T2 sequence (looked up): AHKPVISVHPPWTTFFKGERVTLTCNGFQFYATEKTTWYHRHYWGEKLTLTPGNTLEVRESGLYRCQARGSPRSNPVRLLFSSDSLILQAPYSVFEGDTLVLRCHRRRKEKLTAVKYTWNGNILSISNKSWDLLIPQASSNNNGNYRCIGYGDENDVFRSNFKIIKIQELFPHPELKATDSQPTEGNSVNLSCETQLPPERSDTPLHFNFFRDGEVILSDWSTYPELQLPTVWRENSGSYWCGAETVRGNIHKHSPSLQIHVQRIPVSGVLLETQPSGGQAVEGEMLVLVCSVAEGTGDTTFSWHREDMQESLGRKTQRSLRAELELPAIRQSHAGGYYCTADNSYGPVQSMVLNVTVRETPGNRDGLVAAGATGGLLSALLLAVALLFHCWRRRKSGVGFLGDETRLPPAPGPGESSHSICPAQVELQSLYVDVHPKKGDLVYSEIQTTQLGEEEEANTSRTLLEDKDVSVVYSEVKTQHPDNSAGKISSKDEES
Experimental: as §1

Question: Does B1 bind?
Answer: no binding (tested: 3 µg/ml)

Question: Does B2 bind?
Answer: no binding (tested: 3 µg/ml)

Question: Does B3 bind?
Answer: no binding (tested: 3 µg/ml)

Question: Does B4 bind?
Answer: no binding (tested: 3 µg/ml)

Question: Does B5 bind?
Answer: no binding (tested: 3 µg/ml)

Question: Does B6 bind?
Answer: no binding (tested: 3 µg/ml)

target: T3, human FcRH5 protein fragment (soluble) (human, UniProt Q96RD9 16-851); test: BIACORE, TDB format
T3 construct: whole entry named; also called soluble human FcRH5; Human FcRH5 (BIACORE analyte)
T3 sequence: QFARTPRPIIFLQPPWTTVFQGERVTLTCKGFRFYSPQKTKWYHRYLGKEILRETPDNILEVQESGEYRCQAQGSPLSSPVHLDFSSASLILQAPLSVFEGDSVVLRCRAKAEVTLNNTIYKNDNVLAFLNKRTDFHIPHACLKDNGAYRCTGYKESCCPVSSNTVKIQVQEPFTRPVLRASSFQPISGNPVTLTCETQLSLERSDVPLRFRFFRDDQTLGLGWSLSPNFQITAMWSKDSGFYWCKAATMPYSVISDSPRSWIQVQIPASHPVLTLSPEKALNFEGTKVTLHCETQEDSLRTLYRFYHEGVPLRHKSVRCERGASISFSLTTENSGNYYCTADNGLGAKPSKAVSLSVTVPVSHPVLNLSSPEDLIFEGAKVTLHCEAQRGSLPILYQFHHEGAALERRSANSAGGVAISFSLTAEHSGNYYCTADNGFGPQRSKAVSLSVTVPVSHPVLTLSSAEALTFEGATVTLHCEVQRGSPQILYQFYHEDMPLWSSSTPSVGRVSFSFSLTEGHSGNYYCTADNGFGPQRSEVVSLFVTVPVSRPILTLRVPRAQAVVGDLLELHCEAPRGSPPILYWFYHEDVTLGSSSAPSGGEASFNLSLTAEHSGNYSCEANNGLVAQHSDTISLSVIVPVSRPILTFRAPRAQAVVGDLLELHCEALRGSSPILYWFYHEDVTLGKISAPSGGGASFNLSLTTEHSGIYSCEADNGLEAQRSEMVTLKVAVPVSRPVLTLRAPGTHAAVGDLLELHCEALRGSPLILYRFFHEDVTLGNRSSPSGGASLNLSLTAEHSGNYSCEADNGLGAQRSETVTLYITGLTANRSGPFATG

Question: With B1 as the binder, how does the Kd read?
Answer: 1.4 nM

Question: B2 was tested. Which Kd did it give?
Answer: 0.9 nM

Question: B3 was tested. Which Kd did it give?
Answer: 1.2 nM

Question: How did the Kd turn out when B4 was run?
Answer: 1.5 nM

Question: For B5, which Kd is on record?
Answer: 2.6 nM

Question: How did the Kd turn out when B6 was run?
Answer: 2.7 nM

target: T4, human FcRH2 (full-length, on SVT2 cells) (human, UniProt Q96LA5 20-508); test: FACS, SVT2 cells, 3 µg/ml
T4 construct: whole, on cells; also called SVT2-FcRH2
T4 sequence (looked up): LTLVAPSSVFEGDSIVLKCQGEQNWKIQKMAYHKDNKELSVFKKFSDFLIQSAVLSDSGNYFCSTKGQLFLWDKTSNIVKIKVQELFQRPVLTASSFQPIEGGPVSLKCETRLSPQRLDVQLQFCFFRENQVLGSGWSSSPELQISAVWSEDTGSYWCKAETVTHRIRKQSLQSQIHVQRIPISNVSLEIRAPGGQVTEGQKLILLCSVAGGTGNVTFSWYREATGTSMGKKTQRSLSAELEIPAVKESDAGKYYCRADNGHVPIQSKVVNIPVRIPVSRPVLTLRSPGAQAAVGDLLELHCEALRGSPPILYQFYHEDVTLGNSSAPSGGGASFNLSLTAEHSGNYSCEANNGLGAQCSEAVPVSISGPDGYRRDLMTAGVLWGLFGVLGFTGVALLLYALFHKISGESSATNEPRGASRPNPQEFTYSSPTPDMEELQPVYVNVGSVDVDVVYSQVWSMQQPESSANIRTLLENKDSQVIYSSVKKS
Experimental: as §1

Question: Does B1 bind?
Answer: binds

Question: Does B2 bind?
Answer: binds

Question: Does B3 bind?
Answer: binds

Question: Does B4 bind?
Answer: binds

Question: Does B5 bind?
Answer: binds

Question: Does B6 bind?
Answer: binds
